For 9 molecules, Kd and binding results are on record in paper PMC10657408, “c-di-GMP inhibits the DNA binding activity of H-NS in Salmonella” (Nature Communications, 2023).

Numbering of substitutions follows the chain as printed.

The subject of data set [1] is H-NS K107A (Salmonella enterica serovar Typhimurium (LT2 reference genome; SL1344 also used)). Briefly: ITC. Conditions: ITC: 25 mM Tris-HCl, 150 mM NaCl, pH 7.5, 20 C, 100 uM DNA into 10 uM protein; EMSA: 20 mM Tris-HCl, 4 mM MgCl2, 100 mM NaCl, 1 mM DTT, 1% NP-40, 10% glycerol ….
Data set [2] has as its system H-NS (Salmonella enterica serovar Typhimurium (LT2 reference genome; SL1344 also used)). The data set is described as follows: ITC. Particulars: ITC: 25 mM Tris-HCl, 150 mM NaCl, pH 7.5, 20 C, 100 uM DNA into 10 uM protein; EMSA: 20 mM Tris-HCl, 4 mM MgCl2, 100 mM NaCl, 1 mM DTT, 1% NP-40, 10% glycerol ….
Data set [3] concerns the target T1, H-NS (Salmonella enterica serovar Typhimurium (LT2 reference genome; SL1344 also used)) (UniProt P0A1S2).
T1 sequence: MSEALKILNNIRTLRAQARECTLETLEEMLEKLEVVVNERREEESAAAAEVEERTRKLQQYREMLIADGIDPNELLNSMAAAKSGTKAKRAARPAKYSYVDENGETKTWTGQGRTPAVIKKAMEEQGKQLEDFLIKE
Briefly: EMSA. Conditions: ITC: 25 mM Tris-HCl, 150 mM NaCl, pH 7.5, 20 C, 100 uM DNA into 10 uM protein; EMSA: 20 mM Tris-HCl, 4 mM MgCl2, 100 mM NaCl, 1 mM DTT, 1% NP-40, 10% glycerol ….

Data set [4] addresses T2, H-NS K107A K107A (Salmonella enterica serovar Typhimurium (LT2 reference genome; SL1344 also used)) (UniProt P0A1S2).
T2 sequence: T1 sequence with K107A
Briefly: EMSA. Conditions: ITC: 25 mM Tris-HCl, 150 mM NaCl, pH 7.5, 20 C, 100 uM DNA into 10 uM protein; EMSA: 20 mM Tris-HCl, 4 mM MgCl2, 100 mM NaCl, 1 mM DTT, 1% NP-40, 10% glycerol …. On the technique in general: Mobility shift assays separate free from complexed probe on a gel.

Data set [5] has as its target T1, H-NS (Salmonella enterica serovar Typhimurium (LT2 reference genome; SL1344 also used)). Briefly: ITC. Conditions: ITC: 25 mM Tris-HCl, 150 mM NaCl, pH 7.5, 20 C, 100 uM DNA into 10 uM protein; EMSA: 20 mM Tris-HCl, 4 mM MgCl2, 100 mM NaCl, 1 mM DTT, 1% NP-40, 10% glycerol ….
For data set [6], the target named is T2, H-NS K107A K107A (Salmonella enterica serovar Typhimurium (LT2 reference genome; SL1344 also used)). The data set is described as follows: ITC. Conditions: ITC: 25 mM Tris-HCl, 150 mM NaCl, pH 7.5, 20 C, 100 uM DNA into 10 uM protein; EMSA: 20 mM Tris-HCl, 4 mM MgCl2, 100 mM NaCl, 1 mM DTT, 1% NP-40, 10% glycerol ….
Data set [7] addresses T3, H-NS T115A T115A (Salmonella enterica serovar Typhimurium (LT2 reference genome; SL1344 also used)) (UniProt P0A1S2).
T3 sequence: T1 sequence with T115A
The data set is described as follows: ITC. Conditions: ITC: 25 mM Tris-HCl, 150 mM NaCl, pH 7.5, 20 C, 100 uM DNA into 10 uM protein; EMSA: 20 mM Tris-HCl, 4 mM MgCl2, 100 mM NaCl, 1 mM DTT, 1% NP-40, 10% glycerol ….

Data set [8] concerns the target StpA (Salmonella enterica, UniProt P0A1S4). Briefly: Kd measurement (ITC, Supplementary Fig. […]b). The data set is classed as binding.
Data set [9] concerns the target T4, H-NS (Salmonella enterica, UniProt A0A0H3NBY9).
T4 construct: gene hns; full-length, tag-free
The data set is described as follows: ITC ([…] stoichiometry); also UV-crosslinking competition and EMSA inhibition of DNA binding.

For data set [10], the target named is T5, StpA (Salmonella enterica, UniProt P0A1S4, F98Y).
T5 sequence (P0A1S4 1-133 F98Y): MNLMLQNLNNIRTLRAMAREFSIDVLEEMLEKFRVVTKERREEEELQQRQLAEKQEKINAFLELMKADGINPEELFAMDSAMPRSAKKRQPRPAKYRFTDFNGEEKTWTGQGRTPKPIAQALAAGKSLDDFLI
Briefly: Kd measurement (ITC, Supplementary Fig. […]b). The format is binding.

As for PfimA, the Kd (as a rule, a measure of binding affinity in units of concentration) amounted to 0.43 µM in data set [1] and 0.36 µM in data set [2].
For PvgrG, the values for the Kd in data set [1] and in data set [2] were 0.38 µM and 0.46 µM, respectively.
Turning to PyaiU, the Kd in [2] amounted to 0.29 µM.
Take “TAATCGATGGTGTTATCATTAGGAAGATAAATTTCTTCATATATAACCCAGTCGATGACTACAATTACTTTTTAATAAGATGGCGATGTAAAAACATCGTAACAGTTTATTTAATAAATAATTTTTCAAATTGTAAGTTTTTATGTCAATGCTGAAAATGTAATTGTGAATTTATCGGAAAATCCGAATGATAGAATCGCCTGTGACAAGGTATATGTAGACAGCATCCTGATATTGTA (double strand) [PssrAB]”: the binding entry in data set [3] is on record as “binds”.
In the case of “CAAAACTCATGGTAGTGACTCCTTTAATACCGGATTAAAATAAATAGACTCACCGTCAGGAAACAGTGCCCCGCACTTTATAATGCAACCAGCCTGTTATATTTAAATATTTACCAGAAGAACAGGGTATATTGCTGACAAGAGCCATGAAAATAAAAACACAAAAATTAGCACATAACATAAATACTGAATTACATAAATAAGGAAATGAACATAACAATA (double strand) [PvgrG]”, the binding result is “binds” in data set [3], “binds” in data set [4] and “binds more weakly” in data set [7]. In addition, the Kd in data set [5] was found to be 0.46 µM; in [6] it was 0.38 µM.
Take `Nc1nc2c(ncn2[C@@H]2O[C@@H]3CO[P@](=O)(O)O[C@H]4[C@@H](O)[C@H](n5cnc6c(=O)[nH]c(N)nc65)O[C@@H]4CO[P@](=O)(O)O[C@H]3[C@H]2O)c(=O)[nH]1` [c-di-GMP]: the Kd is 73 ± 14 µM in [8], 0.27 ± 0.04 µM in data set [9] and 0.64 ± 0.09 µM in [10].
Regarding PclpV, the Kd came out at 0.32 µM in [1] and 0.31 µM in data set [2].
For “ATGTTTCATGGATTTCCCTTGAATTACACACACCCGGTTTCGGCATCCTGTCGGCTCCGTTTGAATTATTATCGACATAGCATGTCAGAAAAGTTATCTCTGCATCCTGTAAAGATAGATATCGCAGATTAATTAGTTTTCTGTTTCTCCCCTGAGTATCAGACGCAGTAATTAATCTTTGCGAATATGACATTTCGTCACGGTAATAAATTAAACATTTCGCTAAATAAAAAATAGCCG (double strand) [PfimA]”, the binding entry in [3] and in [4] was “binds” throughout. Besides, the Kd in [5] was found to be 0.36 µM; in data set [6], 0.43 µM.
As to “TTCCATGTGTTATGCCTTGTGACATAAAAATTCATAAAAATAATGCATCAATGCATATAAATATATAAACAATTCTTTATTGATAGCCTCGAAAAAATATCGAAACAAAACAATGATACAGATCAGGGACTAATTAGCAACTAAGCCGTTAATATTAAATAATCAATGAACAGCAAGATAAAAA (double strand) [PclpV]”, the binding entry in data set [3] is “binds”; in data set [4], “binds”; in data set [7], “binds more weakly”. Besides, the Kd is 0.31 µM in [5] and 0.32 µM in [6].
